Reference: patent US20230235068A1 (published 2023)

Key:
[1] = target: T1, recombinant rat LEPR extracellular domain expressed with a C-terminal myc-myc-hexahistidine tag (rat, UniProt Q62959 22-839); test: SPR, captured mAb, 25 C
T1 construct: Monomeric construct; also called rLEPR.MMH; rLEPR-MMH
Experimental: (§1) Equilibrium dissociation constants (KD values) for antigen binding to purified anti-LEPR monoclonal antibodies of the invention were determined using a real-time surface plasmon resonance biosensor using a Biacore 4000 instrument. All binding studies were performed in running buffer containing 10 mM HEPES, 150 mM NaCl, 3 mM EDTA, and 0.05% v/v Surfactant Tween-20, pH 7.4 (HBS-ET running buffer) at 25° C. and 37° C. The Biacore sensor surface was first derivatized by amine coupling with a monoclonal mouse anti-human Fc antibody (GE, #BR-1008-39) to the capture anti-LEPR monoclonal antibodies. […] The dissociation of monoclonal antibody bound LEPR reagent was monitored for 10 minutes in HBS-ET running buffer. Kinetic association (kₐ) and dissociation (kd) rate constants were determined by fitting the real-time binding sensorgrams to a 1:1 binding model with mass transport limitation using Scrubber 2.0c curve-fitting software. Binding dissociation equilibrium constants (KD) and dissociative half-lives (t½) were calculated from the kinetic rate constants as: […]

[2] = target: T2, recombinant mouse LEPR extracellular domain expressed with a C-terminal myc-myc-hexahistidine tag (mouse, UniProt P48356 22-839); test: SPR, captured mAb, 37 C
T2 construct: Monomeric construct; also called mLEPR.MMH; mLEPR-MMH
Experimental: as §1

T2 sequence (P48356 other isoform, or with tags, fused parts or gaps): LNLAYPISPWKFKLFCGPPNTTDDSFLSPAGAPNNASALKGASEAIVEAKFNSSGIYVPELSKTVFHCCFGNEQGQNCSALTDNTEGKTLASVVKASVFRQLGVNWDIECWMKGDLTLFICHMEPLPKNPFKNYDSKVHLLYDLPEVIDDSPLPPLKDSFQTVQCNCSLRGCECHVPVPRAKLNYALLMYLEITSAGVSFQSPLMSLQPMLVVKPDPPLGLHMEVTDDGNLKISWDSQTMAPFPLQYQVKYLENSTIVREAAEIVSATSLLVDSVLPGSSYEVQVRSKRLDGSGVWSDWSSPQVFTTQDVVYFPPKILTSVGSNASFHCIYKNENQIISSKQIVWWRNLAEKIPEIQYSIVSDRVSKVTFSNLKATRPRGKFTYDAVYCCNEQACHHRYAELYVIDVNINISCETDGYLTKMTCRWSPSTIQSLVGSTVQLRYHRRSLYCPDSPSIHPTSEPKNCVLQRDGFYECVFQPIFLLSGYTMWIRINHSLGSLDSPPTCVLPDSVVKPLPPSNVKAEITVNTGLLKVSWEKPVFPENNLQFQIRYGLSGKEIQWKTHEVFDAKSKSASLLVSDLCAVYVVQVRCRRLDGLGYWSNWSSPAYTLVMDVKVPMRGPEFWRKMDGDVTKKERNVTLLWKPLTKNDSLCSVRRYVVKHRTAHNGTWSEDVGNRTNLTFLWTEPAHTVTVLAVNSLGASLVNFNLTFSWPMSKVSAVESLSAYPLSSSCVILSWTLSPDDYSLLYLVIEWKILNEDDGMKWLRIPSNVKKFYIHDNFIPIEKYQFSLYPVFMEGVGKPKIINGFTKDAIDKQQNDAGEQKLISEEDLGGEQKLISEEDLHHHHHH
T1 sequence (Q62959 other isoform, or with tags, fused parts or gaps): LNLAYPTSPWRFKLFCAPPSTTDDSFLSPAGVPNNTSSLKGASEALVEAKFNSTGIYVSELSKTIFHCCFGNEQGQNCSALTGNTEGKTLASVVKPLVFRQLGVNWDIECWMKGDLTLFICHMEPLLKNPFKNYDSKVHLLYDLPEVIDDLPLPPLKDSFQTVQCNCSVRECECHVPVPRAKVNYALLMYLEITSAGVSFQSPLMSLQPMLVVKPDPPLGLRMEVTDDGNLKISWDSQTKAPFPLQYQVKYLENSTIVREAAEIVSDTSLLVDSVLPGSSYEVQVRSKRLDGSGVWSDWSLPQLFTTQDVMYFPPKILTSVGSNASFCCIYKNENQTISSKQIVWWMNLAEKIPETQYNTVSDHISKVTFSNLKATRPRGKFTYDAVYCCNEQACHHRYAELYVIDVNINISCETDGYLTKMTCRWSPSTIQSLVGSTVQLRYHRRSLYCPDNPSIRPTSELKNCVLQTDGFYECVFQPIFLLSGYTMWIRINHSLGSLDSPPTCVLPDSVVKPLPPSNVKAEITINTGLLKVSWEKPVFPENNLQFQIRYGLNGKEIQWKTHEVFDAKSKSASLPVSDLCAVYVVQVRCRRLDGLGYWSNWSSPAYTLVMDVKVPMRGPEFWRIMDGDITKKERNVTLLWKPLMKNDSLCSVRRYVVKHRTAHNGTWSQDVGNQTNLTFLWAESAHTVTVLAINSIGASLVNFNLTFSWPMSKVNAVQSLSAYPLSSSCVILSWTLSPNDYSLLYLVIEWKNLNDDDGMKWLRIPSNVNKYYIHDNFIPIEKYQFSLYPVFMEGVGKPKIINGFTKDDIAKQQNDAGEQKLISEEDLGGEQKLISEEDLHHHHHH

| 100 nM rLEPR-MMH Bound (RU) [1] [RU] | 100 nM mLEPR-MMH Bound (RU) [2] [RU] | Binder |
| --- | --- | --- |
| 10 | – | H4H17322P2 (antibody, human IgG4, V domains shown, Fully human variable regions; H4H prefix = human IgG4 Fc) VH: QLQLQESGPGLVKPSETLSLTCTVSGASISSSRFYGGWIRQPPGKGLEWIGDIYYSGNTYYNPSLQSRVTISVDTSKNQFSLKLSSVTAADTAVYYCARHLMITFGGLIVEGFDIWGQGTMVTVSS VL: not shown |
| – | 3 | H4H18462P2 (antibody, human IgG4, V domains shown, Fully human variable regions; H4H prefix = human IgG4 Fc) VH: EVQLVESGGDLVQPGRSLRLSCAASGFTFSSFAMSWVRQAPGRGLEWVSSLSDSGDNTYYADSVKGRFTISRDNSKNTLYLQMNNLRAEDTAVYYCAKDLFSGWLFHGFDVWGQGTMVTVSS VL: not shown |
